Assay results as given in paper PMC5042876.

Substrate: CC1(C)C[C@H]2C=C(C(=O)O)[C@@H]3COC(=O)[C@]4(CO4)[C@]23C1
Assay: purified protein, by the assay type
Settings: 30 °C

B1: wild-type PntM (Streptomyces arenae) (protein)
chain: MTDLPRLPFDNPDIMGIAPQMLALQKEGPIARVGTAGEDAWLVTRYDEVRTLLADRRLRLSNPNPQPSAKSAARAFMVALMAGDDHETEPARHAQMRSLLIPRFSTRRLRLMKTRIEHHVDELLDQLAASAPPVDLHRVLSFRLPTMVVCDLLGVPLADRERFGQWARGTFDQSDNEHSANTFQQVVDYMLELVARKRVEPGDDILSELIAEKDGALSDADIAHLGNAVLLFGYETTIVRIDLGTLLLLRNPVQRAQLAEDPGLAPAAVEEILRLGVGGKGSNALIPRYAHGDITVGETVIRTGDAVMLAIGAANYDDRAFPDGGLFDLTRVRPRSHLAFGHGARHCIGRTLARIELTAVFERLFRRLPDLRLAVPEESLRWQEHRITGGFDEIPVTF
- Km (other: Wild-type, pH 8.0): 36 ± 14 µM
- kcat (other: Wild-type, pH 8.0): 0.03 s⁻¹
- kcat/Km (other: Wild-type, pH 8.0): 833 M⁻¹ s⁻¹

B2: PntM M81C (Streptomyces arenae; M81C) (protein)
chain: MTDLPRLPFDNPDIMGIAPQMLALQKEGPIARVGTAGEDAWLVTRYDEVRTLLADRRLRLSNPNPQPSAKSAARAFMVALCAGDDHETEPARHAQMRSLLIPRFSTRRLRLMKTRIEHHVDELLDQLAASAPPVDLHRVLSFRLPTMVVCDLLGVPLADRERFGQWARGTFDQSDNEHSANTFQQVVDYMLELVARKRVEPGDDILSELIAEKDGALSDADIAHLGNAVLLFGYETTIVRIDLGTLLLLRNPVQRAQLAEDPGLAPAAVEEILRLGVGGKGSNALIPRYAHGDITVGETVIRTGDAVMLAIGAANYDDRAFPDGGLFDLTRVRPRSHLAFGHGARHCIGRTLARIELTAVFERLFRRLPDLRLAVPEESLRWQEHRITGGFDEIPVTF
- Km (other: M81C, pH 8.0): 19 ± 3 µM
- kcat (other: M81C, pH 8.0): 0.00153 s⁻¹
- kcat/Km (other: M81C, pH 8.0): 81.7 M⁻¹ s⁻¹

B3: PntM F232L (Streptomyces arenae; F232L) (protein)
chain: MTDLPRLPFDNPDIMGIAPQMLALQKEGPIARVGTAGEDAWLVTRYDEVRTLLADRRLRLSNPNPQPSAKSAARAFMVALMAGDDHETEPARHAQMRSLLIPRFSTRRLRLMKTRIEHHVDELLDQLAASAPPVDLHRVLSFRLPTMVVCDLLGVPLADRERFGQWARGTFDQSDNEHSANTFQQVVDYMLELVARKRVEPGDDILSELIAEKDGALSDADIAHLGNAVLLLGYETTIVRIDLGTLLLLRNPVQRAQLAEDPGLAPAAVEEILRLGVGGKGSNALIPRYAHGDITVGETVIRTGDAVMLAIGAANYDDRAFPDGGLFDLTRVRPRSHLAFGHGARHCIGRTLARIELTAVFERLFRRLPDLRLAVPEESLRWQEHRITGGFDEIPVTF
- Km (other: F232L, pH 8.0): 12.0 ± 3 µM
- kcat (other: F232L, pH 8.0): 0.0015 s⁻¹
- kcat/Km (other: F232L, pH 8.0): 125 M⁻¹ s⁻¹

B4: PntM M81C-BME (Streptomyces arenae; M81C) (protein)
chain: MTDLPRLPFDNPDIMGIAPQMLALQKEGPIARVGTAGEDAWLVTRYDEVRTLLADRRLRLSNPNPQPSAKSAARAFMVALCAGDDHETEPARHAQMRSLLIPRFSTRRLRLMKTRIEHHVDELLDQLAASAPPVDLHRVLSFRLPTMVVCDLLGVPLADRERFGQWARGTFDQSDNEHSANTFQQVVDYMLELVARKRVEPGDDILSELIAEKDGALSDADIAHLGNAVLLFGYETTIVRIDLGTLLLLRNPVQRAQLAEDPGLAPAAVEEILRLGVGGKGSNALIPRYAHGDITVGETVIRTGDAVMLAIGAANYDDRAFPDGGLFDLTRVRPRSHLAFGHGARHCIGRTLARIELTAVFERLFRRLPDLRLAVPEESLRWQEHRITGGFDEIPVTF
- Km (other: M81C-BME, pH 8.0): 280 ± 110 µM
- kcat (other: M81C-BME, pH 8.0): 0.00142 s⁻¹
- kcat/Km (other: M81C-BME, pH 8.0): 5 M⁻¹ s⁻¹

B5: PntM M81A (Streptomyces arenae; M81A) (protein)
chain: MTDLPRLPFDNPDIMGIAPQMLALQKEGPIARVGTAGEDAWLVTRYDEVRTLLADRRLRLSNPNPQPSAKSAARAFMVALAAGDDHETEPARHAQMRSLLIPRFSTRRLRLMKTRIEHHVDELLDQLAASAPPVDLHRVLSFRLPTMVVCDLLGVPLADRERFGQWARGTFDQSDNEHSANTFQQVVDYMLELVARKRVEPGDDILSELIAEKDGALSDADIAHLGNAVLLFGYETTIVRIDLGTLLLLRNPVQRAQLAEDPGLAPAAVEEILRLGVGGKGSNALIPRYAHGDITVGETVIRTGDAVMLAIGAANYDDRAFPDGGLFDLTRVRPRSHLAFGHGARHCIGRTLARIELTAVFERLFRRLPDLRLAVPEESLRWQEHRITGGFDEIPVTF
- Km (other: M81A, pH 8.0): 37 ± 6 µM

B6: PntM F232A (Streptomyces arenae; F232A) (protein)
chain: MTDLPRLPFDNPDIMGIAPQMLALQKEGPIARVGTAGEDAWLVTRYDEVRTLLADRRLRLSNPNPQPSAKSAARAFMVALMAGDDHETEPARHAQMRSLLIPRFSTRRLRLMKTRIEHHVDELLDQLAASAPPVDLHRVLSFRLPTMVVCDLLGVPLADRERFGQWARGTFDQSDNEHSANTFQQVVDYMLELVARKRVEPGDDILSELIAEKDGALSDADIAHLGNAVLLAGYETTIVRIDLGTLLLLRNPVQRAQLAEDPGLAPAAVEEILRLGVGGKGSNALIPRYAHGDITVGETVIRTGDAVMLAIGAANYDDRAFPDGGLFDLTRVRPRSHLAFGHGARHCIGRTLARIELTAVFERLFRRLPDLRLAVPEESLRWQEHRITGGFDEIPVTF
- Km (other: F232A, pH 8.0, n=1): 43 ± 5 µM
- kcat (other: F232A, pH 8.0, n=1): 0.000583 s⁻¹
- kcat/Km (other: F232A, pH 8.0, n=1): 13.7 M⁻¹ s⁻¹

B7: PntM M77S (Streptomyces arenae; M77S) (protein)
chain: MTDLPRLPFDNPDIMGIAPQMLALQKEGPIARVGTAGEDAWLVTRYDEVRTLLADRRLRLSNPNPQPSAKSAARAFSVALMAGDDHETEPARHAQMRSLLIPRFSTRRLRLMKTRIEHHVDELLDQLAASAPPVDLHRVLSFRLPTMVVCDLLGVPLADRERFGQWARGTFDQSDNEHSANTFQQVVDYMLELVARKRVEPGDDILSELIAEKDGALSDADIAHLGNAVLLFGYETTIVRIDLGTLLLLRNPVQRAQLAEDPGLAPAAVEEILRLGVGGKGSNALIPRYAHGDITVGETVIRTGDAVMLAIGAANYDDRAFPDGGLFDLTRVRPRSHLAFGHGARHCIGRTLARIELTAVFERLFRRLPDLRLAVPEESLRWQEHRITGGFDEIPVTF
- Km (other: M77S, pH 8.0): 19 ± 4 µM
- kcat (other: M77S, pH 8.0): 0.000317 s⁻¹
- kcat/Km (other: M77S, pH 8.0): 16.7 M⁻¹ s⁻¹
